Results: patent US20220235117A1

Experiments:
[1] = target: hepatitis B virus surface antigen (HBsAg) (hepatitis B virus); test: SPR, Biacore 3000, HBsAg on CM5 chip, antibody as analyte, pH 7.4
[2] = target: hepatitis B virus surface antigen (HBsAg) (hepatitis B virus); test: ELISA, commercial HBsAg plate, well held 30 min in PBS pH 6.0 after binding, GAH-HRP secondary antibody, OD(450/630)
[3] = target: hepatitis B virus surface antigen (HBsAg) (hepatitis B virus); test: ELISA, commercial HBsAg plate, well held 30 min in PBS pH 7.4 after binding, GAH-HRP secondary antibody, OD(450/630)
[4] = target: hepatitis B virus surface antigen (HBsAg) (hepatitis B virus); test: ELISA on commercial HBsAg plate, pH 6.0
[5] = target: hepatitis B virus surface antigen (HBsAg) (hepatitis B virus); test: ELISA on commercial HBsAg plate, pH 7.4
[6] = target: hepatitis B virus surface antigen (HBsAg) (hepatitis B virus); test: ELISA on commercial HBsAg plate, ratio of EC50 at pH 6.0 to pH 7.4

Binder | Kd [1] [nM] | EC50 (read off the curve) [2] [ng/mL] | EC50 (read off the curve) [3] [ng/mL] | EC50 [4] [µg/mL] | EC50 [5] [µg/mL] | EC50(pH 6.0)/EC50(pH 7.4) [6]
anti-HBV humanized antibody M1D (antibody, V domains shown) VH: QVQLQESGPGLVKPSETLSLTCTVSGGSITSNFWSWIRQPPGKGLEWIGYISGSGTYTDYNPSLKSRVTISVDTSKNQFSLKLSSVTAADTAVYYCARSHDYGSNDYAFDFWGQGTTVTVSS VL: DIQMTQSPSSLSASVGDRVTITCRATQDISSSLNWYQQKPGKAPKLLIYYANRLQSGVPSRFSGSGSGTDFTLTISSLQPEDFATYYCQQYHSLPLTFGGGTKVEIK | 0.534 | 10 | 10 |  |  | 
A42-23 (antibody, human IgG1, kappa, V domains shown) VH: QVQLQESGPGLVKPSETLSLTCTVSGGSITHNFWSWIRQPPGKGLEWIGYISGYDTYTDYNPSLKSRVTISVDTSKNQFSLKLSSVTAADTAVYYCARSHDYGHHDYAFDFWGQGTTVTVSS VL: DIQMTQSPSSLSASVGDRVTITCRATQDIHHSLNWYQQKPGKAPKLLIYYANRLQSGVPSRFSGSGSGTDFTLTISSLQPEDFATYYCQQYHYLPLTFGGGTKVEIKR |  |  |  | 0.345 | 0.0127 | 27.2
